Test results taken from patent US9393284B2, “Visfatin therapeutic agents for the treatment of acne and other conditions” (ARAVA BIO-TECH LTD., priority 2009, dated 2016).

Legend:
sebaceous glands [1] = test: Number of sebocytes in sebaceous glands of adult BalbC mice after topical or intradermal visfatin (H&E staining); type: in vivo, Mus musculus; conditions: 0.01 μg/ml, 200 μL once daily for 4 days
Procedure: Preparation of Paraffin Embedded Skin Sections: Skin biopsies were performed on study mice. Skin biopsy samples were fixed in 4% paraformaldehyde then dehydrated with increasing concentrations of ethanol (50-100%). Dehydrated biopsy samples were immersed twice in xylene, then once in a 1:1 solution of paraffin and xylene and finally three times in pure melted paraffin at a temperature of 60° C. Paraffin blocks were then sectioned with a microtome and the resulting sections were mounted on slides.
Hematoxylin & Eosin Staining: Paraffin embedded skin biopsy section slides were incubated at 60° C. for 60 minutes and deparaffinized by washing the slides twice with toluene (100%) for 10 minutes and rehydrating the skin biopsy section slides in decreasing concentration of ethanol (100-50%) for 5 minutes each. The slides then were stained with a ready to use solution of hematoxylin for 5 minutes, rinsed with water, stained with eosin (0.5% in double distilled water) for 1.5 minutes and washed twice by rapid immersion in 70% ethanol. […]
Skin samples were fixed in 4% paraformaldehyde and paraffin embedded. The number of cells with the bubbled shaped morphology characteristic of sebocytes were then counted and calculated as a percentage of the number of total cells in each sebaceous gland by microscopic examination at a magnification of 40× using a Nikon Eclipse 50i microscope. […]

sebaceous glands [2] = test: Maturation and sebum accumulation of sebaceous glands in newborn BalbC mice treated with visfatin (Oil Red O, H&E); type: in vivo, Mus musculus
Procedure: Preparation of Frozen Skin Sections: Skin biopsies were embedded in optimum cutting temperature compound (OCT) and immediately sectioned by cryostat-microtome and mounted on slides.
Hematoxylin & Eosin Staining: Paraffin embedded skin biopsy section slides were incubated at 60° C. for 60 minutes and deparaffinized by washing the slides twice with toluene (100%) for 10 minutes and rehydrating the skin biopsy section slides in decreasing concentration of ethanol (100-50%) for 5 minutes each. The slides then were stained with a ready to use solution of hematoxylin for 5 minutes, rinsed with water, stained with eosin (0.5% in double distilled water) for 1.5 minutes and washed twice by rapid immersion in 70% ethanol. Thereafter, the slides were dehydrated by washing once with 95% ethanol for 5 minutes, twice with 100% ethanol for 5 minutes and twice with xylene (100%) for 10 minutes. This was followed by the application of ENTELLAN™ (Merck KGaA, Darmstadt, Germany) and the mounting of coverslips.
Oil Red O Staining: Frozen skin biopsy section slides were fixed in 1% neutral-buffered formalin for 5 minutes, washed in deionized water, and incubated in 60% isopropanol for 5 minutes. […]

B1: visfatin: recombinant Mus musculus visfatin (Enzo Life Sciences), in PBS, topical or intradermal solution (protein, UniProt Q99KQ4 1-491, looked up)
Nicotinamide …: MNAAAEAEFNILLATDSYKVTHYKQYPPNTSKVYSYFECREKKTENSKVRKVKYEETVFYGLQYILNKYLKGKVVTKEKIQEAKEVYREHFQDDVFNERGWNYILEKYDGHLPIEVKAVPEGSVIPRGNVLFTVENTDPECYWLTNWIETILVQSWYPITVATNSREQKKILAKYLLETSGNLDGLEYKLHDFGYRGVSSQETAGIGASAHLVNFKGTDTVAGIALIKKYYGTKDPVPGYSVPAAEHSTITAWGKDHEKDAFEHIVTQFSSVPVSVVSDSYDIYNACEKIWGEDLRHLIVSRSTEAPLIIRPDSGNPLDTVLKVLDILGKKFPVTENSKGYKLLPPYLRVIQGDGVDINTLQEIVEGMKQKKWSIENVSFGSGGALLQKLTRDLLNCSFKCSYVVTNGLGVNVFKDPVADPNKRSKKGRLSLHRTPAGNFVTLEEGKGDLEEYGHDLLHTVFKNGKVTKSYSFDEVRKNAQLNIEQDVAPH
number of sebocytes present inside the sebaceous glands relative to control mice (sebaceous glands [1]; intradermal): increased | number of sebocytes present inside the sebaceous glands relative to control mice (sebaceous glands [1]; topical): increased | sebum in sebaceous glands based on Oil Red O staining (sebaceous glands [2]; topical visfatin 0.01 μg/ml 100 μL once daily, day 3 after birth): do contain sebum | maturation of sebaceous glands (H&E staining) (sebaceous glands [2]; topical visfatin, day 4 after birth): induces the maturation of sebaceous glands
